From article PMC11403621, “Selective Aurora A-TPX2 Interaction Inhibitors Have In Vivo Efficacy as Targeted Antimitotic Agents” (Journal of Medicinal Chemistry, 2024) come the findings set out here.

No end group written: not given here.

The target of assay [1] is T1, Aurora A kinase domain (residues 126–390) of human Aurora A with hexa-His tag (human, UniProt O14965 126-390).
T1 construct: Construct for biophysical assays; Co-expressed with λ phosphatase, so probably not phosphorylated (surmise); The crystallography constructs differ (Thr287Ala or Cys290Ala); also called Aurora A protein; pBAT4-AurAS.003; source: E. coli BL21(DE3) with pUBS520, double cistronic construct with λ phosphatase, purified (HisTrap, Superdex 75)
T1 sequence (looked up): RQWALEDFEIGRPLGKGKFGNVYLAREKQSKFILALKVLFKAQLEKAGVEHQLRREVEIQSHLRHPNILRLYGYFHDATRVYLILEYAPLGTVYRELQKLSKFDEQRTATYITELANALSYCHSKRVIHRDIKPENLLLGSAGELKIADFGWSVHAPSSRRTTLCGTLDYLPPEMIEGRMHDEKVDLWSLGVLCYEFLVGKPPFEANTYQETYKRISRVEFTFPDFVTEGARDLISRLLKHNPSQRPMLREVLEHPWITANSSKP
Nature of the assay: ligand-observed NMR (CPMG) competition; small-molecule fragments bound to Aurora A, displaced by added TPX2 peptide 7-22 but not by a tight-binding ATP-site ligand. As to conditions: both partners purified.

Assay [2] concerns the target T1, Aurora A kinase domain (residues …). Briefly: fluorescence polarisation; direct titration of up to 200 nM Aurora A to 11 nM labeled TPX2 peptide; 100 mM HEPES pH 7.4, 100 mM magnesium acetate, 50 mM NaCl, 0.02% P20, 1 mM DTT, 1 mM ATP, 10% (v/v) DMSO. As to conditions: both partners purified. A general note: Fluorescence polarisation rises when a labelled molecule tumbles more slowly, as on binding a larger partner.

B1: TPX2 peptide fragment (amino acids 7–22) (peptide, UniProt Q9ULW0 7-22, looked up)
peptide: SYSYDAPSDFINFSSL
notes: TPX2, UniProt Q9ULW0 (printed for the longer peptide), amino acids 7-22; detailed methods are in the Supporting Information PDF
On to B1, for which the binding result in assay [1] is listed as “binds”.

B2: TPX2 peptide (residues 7–43) with a C-terminal GGGCSS tail, labeled with Alexa Fluor 488 (peptide)
peptide: GPGSYSYDAPSDFINFSSLDDEGDTQNIDSWFEEKANLENLKGGGC(Alexa Fluor 488 C5 maleimide)SS
notes: residues left at the N-terminus before the TPX2 part in the printed peptide (after HRV 3C cleavage); TPX2, UniProt Q9ULW0, residues 7-43; C-terminal tail as printed: LK followed by the stated GGGCSS tail; the cysteine carries the dye; Whole printed peptide: [residues removed]; also called labeled TPX2 peptide; not shown: His-tag, N-terminal, cleaved; GB1, N-terminal, cleaved
Consider B2, for which, in assay [2], the equilibrium dissociation constant (Kd) (in general, the concentration at which binding is half-saturated) worked out at 1.2 nM.
